Laboratory results: patent US20240344110A1, “COMPOSITION FOR CELL LYSIS AND NUCLEIC ACID EXTRACTION, NUCLEIC ACID EXTRACTION METHOD USING SAME, AND MOLECULAR DIAGNOSTIC METHOD USING SAME” (INVITROS CO., LTD., priority 2021, published 2024)

What was measured:
RNase [1] = test: Ct value depending on temperature of first heating step (Experimental Example 3); type: biochemical; conditions: RNase inhibitor 30 U/rxn, incubation 5 minutes
RNase [2] = test: Ct value depending on concentration of RNase inhibitor in first heating step (Experimental Example 2); type: biochemical; conditions: first heating 37° C. 5 minutes

- Ct value at first heating temperature of 25° C. to 37° C. (RNase [1]): constant
- Ct value at first heating temperature of 45° C. or higher (RNase [1]): increased
- Ct value as the concentration of the RNase inhibitor increased (RNase [2]; 7.5 U/rxn to 45 U/rxn): gradually decreased
B1: RNase inhibitor: RNase inhibitor (Nanohelix RNase Inhibitor) derived from murine lung (protein, UniProt Q91VI7 1-456, looked up)
Ribonuclease inhibitor: MSLDIQCEQLSDARWTELLPLIQQYEVVRLDDCGLTEVRCKDISSAVQANPALTELSLRTNELGDGGVGLVLQGLQNPTCKIQKLSLQNCGLTEAGCGILPGMLRSLSTLRELHLNDNPMGDAGLKLLCEGLQDPQCRLEKLQLEYCNLTATSCEPLASVLRVKADFKELVLSNNDLHEPGVRILCQGLKDSACQLESLKLENCGITAANCKDLCDVVASKASLQELDLSSNKLGNAGIAALCPGLLLPSCKLRTLWLWECDITAEGCKDLCRVLRAKQSLKELSLASNELKDEGARLLCESLLEPGCQLESLWIKTCSLTAASCPYFCSVLTKSRSLLELQMSSNPLGDEGVQELCKALSQPDTVLRELWLGDCDVTNSGCSSLANVLLANRSLRELDLSNNCMGGPGVLQLLESLKQPSCTLQQLVLYDIYWTNEVEEQLRALEEERPSLRIIS
- Ct value at 52.5 U/rxn (RNase [2]; 52.5 U/rxn): lower than that at a concentration of 7.5 U/rxn
